T1: MBP-CFLAP1 (AKS1) (Arabidopsis thaliana, UniProt Q9C690 1-379)
T1 sequence: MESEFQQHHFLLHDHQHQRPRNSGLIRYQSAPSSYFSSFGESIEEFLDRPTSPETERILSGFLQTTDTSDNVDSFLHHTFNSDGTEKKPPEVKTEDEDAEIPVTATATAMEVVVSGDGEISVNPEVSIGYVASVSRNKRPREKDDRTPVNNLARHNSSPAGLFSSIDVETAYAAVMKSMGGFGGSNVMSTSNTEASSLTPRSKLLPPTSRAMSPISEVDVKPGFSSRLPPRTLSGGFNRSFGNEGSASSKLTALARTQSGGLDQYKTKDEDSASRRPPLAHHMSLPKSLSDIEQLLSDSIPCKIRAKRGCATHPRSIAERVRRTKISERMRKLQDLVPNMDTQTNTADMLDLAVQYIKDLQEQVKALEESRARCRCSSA

B1: pBDG1 P2 probe (dsDNA)
DNA 1: TGGCCACATGCCATCATATCACTTGTCCAT
DNA 2: ATGGACAAGTGATATGATGGCATGTGGCCA
B2: pCYP86A4 P2 probe (dsDNA)
DNA 1: CCACTTTGGTTAACATTTGAGGAAT
DNA 2: ATTCCTCAAATGTTAACCAAAGTGG
B3: pCYP86A2 P3 probe (dsDNA)
DNA 1: GATCATTGGTTTACGATCACTTGCAAAGTC
DNA 2: GACTTTGCAAGTGATCGTAAACCAATGATC
B4: pCYP86A2 P2 probe (dsDNA)
DNA 1: GATATTGCAGTTGCAGCGTACACAAGTCAG
DNA 2: CTGACTTGTGTACGCTGCAACTGCAATATC
B5: pCYP86A4 P1 probe (dsDNA)
DNA 1: TCGGAAAAGTACACTTGGGCTTATA
DNA 2: TATAAGCCCAAGTGTACTTTTCCGA
B6: pBDG1 P1 probe (dsDNA)
DNA 1: CGTCGTTGACCTCTGCATTACAATTGTGTC
DNA 2: GACACAATTGTAATGCAGAGGTCAACGACG
B7: pCYP86A2 P1 probe (dsDNA)
DNA 1: CTACGTACAGTTGTGTTCCATTTGTTACAA
DNA 2: TTGTAACAAATGGAACACAACTGTACGTAG

Molecular target: T1, MBP-CFLAP1 (AKS1)
Assay: EMSA

| Binder | binding result |
| --- | --- |
| B1 | binds |
| B2 | binds |
| B3 | binds |
| B4 | binds |
| B5 | binds |
| B6 | binds |
| B7 | binds |

From publication doi:10.1101/2025.10.28.684701
